The values that follow come from patent US20200040057A1 (IMMATICS BIOTECHNOLOGIES, published 2020).

Test [1] concerns the target HLA-B*07 (human). The test can be described thus: UV peptide exchange ELISA; + = yield >10%.
Test [2] concerns the target HLA-B*07 (human). The test can be described thus: UV peptide exchange ELISA; ++ = yield >20%.
Another test addresses HLA-A*02:01 (human). Description: control peptide-MHC complex on beads, in vitro T-cell priming. Here is the method: 800.000 beads/200 μl were coated in 96-well plates in the presence of 4×12.5 ng different biotin-pMHC, washed and 600 ng biotin anti-CD28 were added subsequently in a volume of 200 μl. Stimulations were initiated in 96-well plates by co-incubating 1×10⁶ CD8+ T cells with 2×10⁵ washed coated beads in 200 μl TCM supplemented with 5 ng/ml IL-12 (PromoCell) for 3 days at 37° C. Half of the medium was then exchanged by fresh TCM supplemented with 80 U/ml IL-2 and incubating was continued for four days at 37° C. This stimulation cycle was performed for a total of three times. […] Finally, multimeric analyses were performed by staining the cells with Live/dead near IR dye (Invitrogen, Karlsruhe, Germany), CD8-FITC antibody clone SK1 (BD, Heidelberg, Germany) and fluorescent pMHC multimers. For analysis, a BD LSRII SORP cytometer equipped with appropriate lasers and filters was used. Peptide specific cells were calculated as percentage of total CD8+ cells. Evaluation of multimeric analysis was done using the FlowJo software (Tree Star, Oregon, USA). In vitro priming of specific multimer+CD8+ lymphocytes was detected by comparing to negative control stimulations.

Consider KSKQVITLL, for which the peptide exchange yield with HLA-B*07 [1] was in the range of 10 to 20%.
As for SPLIGDFPAF, the peptide exchange yield in the test with HLA-B*07 [2] is 20 to 50%.
Take TVYGEPRKL: the peptide exchange yield with HLA-B*07 [2] fell in the range of 20 to 50%.
As for LPLKFFPII, in the test with HLA-B*07 [1], the peptide exchange yield is 10 to 20%.
FTVSSSSAM displayed a peptide exchange yield with HLA-B*07 [2] of 20 to 50%.

B1: DDX5-001 (YLLPAIVHI from DDX5) (peptide)
peptide: YLLPAIVHI
notes: Negative control peptide for stimulations; also called 447
On to B1, for which the binding result with HLA-A*02:01 is “binds”.
KPSAVKDSIY came in with a peptide exchange yield with HLA-B*07 [2] of 20 to 50%.
In the case of MPREDAHF, in the test with HLA-B*07 [1], the peptide exchange yield was in the range of 10 to 20%.
Same read-out and setting: the result for LPLQQYKLV reads 10 to 20%.
AVSSHHNVI gave a peptide exchange yield with HLA-B*07 [2] of 20 to 50%.
The same measure, in the same setting: the result for MALSVLRLAL reads 20 to 50%; that for AAHEFGHVL, 20 to 50%.
In turn, IAYPSLREAAL yielded a peptide exchange yield with HLA-B*07 [2] of 20 to 50%.
Same read-out and setting: the result for LPPHIFAI reads 20 to 50%.
With MLKTTLTAF, in the test with HLA-B*07 [1], the peptide exchange yield lay in the range of 10 to 20%.
LPLLAGTLLL: the peptide exchange yield in the test with HLA-B*07 [2] fell in the range of 20 to 50%.
For the molecule KPGLPGLK, the peptide exchange yield in the test with HLA-B*07 [1] fell in the range of 10 to 20%.
The molecule TDTPSTTPTTI gave a peptide exchange yield with HLA-B*07 [2] of 20 to 50%.
MPEADLKRIF displayed a peptide exchange yield with HLA-B*07 [2] of 20 to 50%.
As for VPLPAGGGTVLT, the peptide exchange yield with HLA-B*07 [1] lay within 10 to 20%.
Regarding LPKPDLPQLI, in the test with HLA-B*07 [1], the peptide exchange yield is 10 to 20%.
Still for that read-out and setting: the result for IPFSVDEI reads 10 to 20%.
Molecule ALLLRGVTL showed a peptide exchange yield with HLA-B*07 [2] of 20 to 50%.
Same read-out and setting: the result for IALMKLAGPL reads 20 to 50%.
IPLEIQKL: the peptide exchange yield with HLA-B*07 [1] lay within 10 to 20%.
In turn, LPMPAITWY displayed a peptide exchange yield with HLA-B*07 [2] of 20 to 50%.
Regarding AQNPAGTAL, the peptide exchange yield in the test with HLA-B*07 [1] was in the range of 10 to 20%.
As to FLIPRAGWLAGL, the peptide exchange yield with HLA-B*07 [2] lay in the range of 20 to 50%.
With KATEYVHSL, the peptide exchange yield with HLA-B*07 [1] was in the range of 10 to 20%.
In the test with HLA-B*07 [2], MPPLLIVAF gave a peptide exchange yield of 20 to 50%.
For the molecule SAAARALLP, the peptide exchange yield with HLA-B*07 [1] was in the range of 10 to 20%.
Still for that read-out and setting: the result for YPLQQTNVY reads 10 to 20%.
In the test with HLA-B*07 [2], TPTRPLPSA came in with a peptide exchange yield of 20 to 50%.
EPNPVEEIF showed a peptide exchange yield with HLA-B*07 [2] of 20 to 50%.
Same read-out and setting: the result for LPASAEPKGTM reads 20 to 50%.
